According to patent publication US20160333110A1 (CHIOME BIOSCIENCE, published 2016):
Values belong to the binder of their own block, whether it stands above or below them.

What was measured:
[1] = target: T1, recombinant protein of the hTROP-2 extracellular region (human, UniProt P09758 27-263); test: monovalent ELISA: antibody captured by anti-mouse IgG, hTROP-2 EC titrated in solution, detected with anti-His
T1 construct: produced with baculovirus, purified on Ni Sepharose; also called hTROP-2 EC; hTROP-2-EC-His; not shown: C-terminal myc-His tag from pcDNA4/myc-His A
T1 sequence: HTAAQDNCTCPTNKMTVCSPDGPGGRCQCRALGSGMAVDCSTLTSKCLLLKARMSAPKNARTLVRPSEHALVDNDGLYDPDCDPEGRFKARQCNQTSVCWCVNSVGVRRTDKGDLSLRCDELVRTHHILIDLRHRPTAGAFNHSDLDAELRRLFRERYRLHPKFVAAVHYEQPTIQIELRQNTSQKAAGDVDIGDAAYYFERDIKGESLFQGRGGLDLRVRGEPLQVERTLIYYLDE
Protocol: Thereafter, coating was carried out at 4° C. overnight. Thereafter, the reaction product was washed with a washing buffer (PBS containing 0.05% Tween 20), and a blocking buffer (PBS containing 2% skim milk and 0.05% Tween 20) was then added thereto (200 μL/well) to block it (at room temperature for 1 hour). The resultant was washed with a washing buffer. […] The mixture was left at rest at room temperature for 1 hour, and the reaction product was then washed with a washing buffer. The recombinant protein of the hTROP-2 extracellular region described in Example 3 (hTROP-2 EC) was diluted with an ELISA buffer to prepare samples with a concentration range from 5 μg/mL to a series of three-fold dilutions (10 samples). The thus obtained sample was added in each amount of 50 μL/well to the plate. The mixture was left at rest at room temperature for 1 hour, and the reaction product was then washed with a washing buffer. […] The obtained mixture was left at rest at room temperature for 1 hour, and it was then washed with a washing buffer. […] The obtained mixture was left at rest at room temperature for 1 hour, and it was then washed with a washing buffer. […] Using Microplate reader Model 550 (BioRad), an absorbance at 450 nm was measured with an absorbance at 655 nm used as a reference.

[2] = target: T2, peptide No. 4 of Table 11 (SEQ ID NO: 212) (human); test: PEPSCAN/CLIPS peptide ELISA, antibody 1 µg/mL
T2 peptide: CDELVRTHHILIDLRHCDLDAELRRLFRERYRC
Protocol: (§1) 5034 types of the synthesized peptides were covalently bound to PEPSCAN cards (455 peptides/card), and the binding of the synthesized peptides to antibodies was then analyzed by the ELISA method. […] After washing, the resultant was allowed to react with a 1000-fold diluted peroxidase-secondary antibody complex at 25° C. for 1 hour. After washing, a substrate solution (a solution containing 2,2′-azino-di-3-ethylbenzthiazoline sulfonate (ABTS) and 2 μL of 3% hydrogen peroxide solution) was added to the reaction solution, followed by a chromogenic reaction for 1 hour. The binding activity of the antibodies was quantified by photographing with a CCD camera and then performing an image analysis.

[3] = target: T3, peptide No. 7 of Table 11 (SEQ ID NO: 215) (human); test: PEPSCAN/CLIPS peptide ELISA, antibody 1 µg/mL
T3 peptide: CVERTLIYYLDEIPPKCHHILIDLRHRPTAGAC
Protocol: as §1

[4] = target: T4, peptide No. 8 of Table 11 (SEQ ID NO: 216) (human); test: PEPSCAN/CLIPS peptide ELISA, antibody 1 µg/mL
T4 peptide: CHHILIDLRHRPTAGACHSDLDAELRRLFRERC
Protocol: as §1

[5] = target: T5, peptide No. 10 of Table 11 (SEQ ID NO: 218) (human); test: PEPSCAN/CLIPS peptide ELISA, antibody 1 µg/mL
T5 peptide: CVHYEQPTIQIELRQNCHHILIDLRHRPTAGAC
Protocol: as §1

[6] = target: T6, peptide No. 19 of Table 11 (SEQ ID NO: 227) (human); test: PEPSCAN/CLIPS peptide ELISA, antibody 1 µg/mL
T6 peptide: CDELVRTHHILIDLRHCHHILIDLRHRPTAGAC
Protocol: as §1

[7] = target: T7, peptide No. 23 of Table 11 (SEQ ID NO: 231) (human); test: PEPSCAN/CLIPS peptide ELISA, antibody 1 µg/mL
T7 peptide: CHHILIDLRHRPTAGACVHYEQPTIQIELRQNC
Protocol: as §1

EC50 [1]: 7 ng/mL
B1: anti-hTROP-2 monoclonal antibody clone K5-70 (antibody, mouse IgG2a, V domains shown)
VH: QVQLQQPGAELVRPGASVKLSCKASGYTFTIYWINWVKQRPGQGLEWIGNIYPSDSYTNYNQKFKDKATLTVDKSSSTAYMQLSSPTSEDSAVYYCTRTSMADYWGQGTTLTVSS
VL: DILLTQSPAILSVSPGERVSFSCRASQSIGTSIHWYQQRTNGSPRLLIKYASESISGIPSRFSGSGSGTDFTLSINSVESEDIADYYCQQSNSWPFTFGSGTKLEIK
notes: mouse IgG2a, hybridoma FERM BP-11251; also called K5-70 antibody; mouse K5-70 antibody

binding of 16-16 [2]: 713
binding of 16-16 [3]: 626
binding of 16-16 [4]: 620
binding of 16-16 [5]: 602
binding of 16-16 [6]: 534
binding of 16-16 [7]: 524
B2: anti-hTROP-2 monoclonal antibody clone T6-16 (antibody, mouse IgG2a, V domains shown)
VH: EVQLQQSGPELVKPGASVKISCKASGYTFTDYNMHWVKQSHGKNLEWIGYIYPYNGGTGYNQRFKSRATMTVDKSSSTAYMELRSLTSDDSAVYYCAREDYGSSPSYAMDYWGQGTSVIVSS
VL: DVVMTQTPLSLPVSLGDQASISCRSSQSLVHGNGNTYLHWYLQKPGQSPKLLIYKVSNRFSGVPDRFSGSGSGTDFTLKISRVEAEDLGVYFCSQTTHVPTFGSGTKLEIK
notes: mouse IgG2a, hybridoma FERM BP-11346; also called T6-16 antibody
